Patent US20090214427

Tests used:
[1] = system: synthetic peptide HK2p01 (SRFKVWWAAG)
[2] = system: synthetic peptide HK2p03 (PARRPFPVTA)
[3] = system: synthetic peptide HK2p02 (AARRPFPAPS)
[4] = system: synthetic peptide HK2p04 (CFRQGCWVIT)
[5] = system: synthetic peptide HK2p06 (CYRMPTCMQRD)

Chain of plasma kallikrein (chain, as listed by the source): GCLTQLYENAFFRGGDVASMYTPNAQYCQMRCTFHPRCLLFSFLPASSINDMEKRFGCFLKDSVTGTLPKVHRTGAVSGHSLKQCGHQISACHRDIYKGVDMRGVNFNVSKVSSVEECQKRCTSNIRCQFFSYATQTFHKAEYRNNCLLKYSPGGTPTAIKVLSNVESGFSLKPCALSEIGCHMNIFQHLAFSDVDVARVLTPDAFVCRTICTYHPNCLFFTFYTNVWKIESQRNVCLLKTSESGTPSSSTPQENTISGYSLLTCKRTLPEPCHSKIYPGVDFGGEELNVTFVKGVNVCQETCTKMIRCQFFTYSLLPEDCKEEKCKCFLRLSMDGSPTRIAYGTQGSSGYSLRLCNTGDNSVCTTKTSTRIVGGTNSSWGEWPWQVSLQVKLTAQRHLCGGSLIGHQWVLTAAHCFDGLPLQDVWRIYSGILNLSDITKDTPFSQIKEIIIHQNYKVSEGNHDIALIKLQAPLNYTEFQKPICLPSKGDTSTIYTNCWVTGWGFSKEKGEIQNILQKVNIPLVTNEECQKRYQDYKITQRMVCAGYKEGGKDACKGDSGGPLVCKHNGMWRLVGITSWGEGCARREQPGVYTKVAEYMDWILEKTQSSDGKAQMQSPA

Row | Substance | enzyme activity (chromogenic substrate) [1] | enzyme activity (chromogenic substrate) [2] | enzyme activity (chromogenic substrate) [3] | enzyme activity of hK2 (chromogenic substrate S-2302) [4] | enzyme activity of hK2 (chromogenic substrate S-2302) [1] | enzyme activity of hK2 (chromogenic substrate S-2302) [2] | enzyme activity of hK2 (chromogenic substrate S-2302) [5] | enzyme activity of hK2 (chromogenic substrate S-2302) [3]
1 | α-chymotrypsin | showed no inhibition | showed no inhibition | showed no inhibition |  |  |  |  | 
2 | recombinant wild-type (wt) human kallikrein 2 |  |  |  | did not show any effect on the enzyme activity of hK2 | caused a significant reduction of the enzyme activity | caused a significant reduction of the enzyme activity | did not show any effect on the enzyme activity of hK2 | caused a significant reduction of the enzyme activity
3 | prostate specific antigen | showed no inhibition | showed no inhibition | showed no inhibition |  |  |  |  | 
4 | plasma kallikrein | showed no inhibition | showed no inhibition | showed no inhibition |  |  |  |  | 
5 | urokinase | showed no inhibition | showed no inhibition | showed no inhibition |  |  |  |  | 
6 | thrombin | showed no inhibition | showed no inhibition | showed no inhibition |  |  |  |  | 
